Data on nine molecules can be found in article PMC5941314, “Structural insights into the nanomolar affinity of RING E3 ligase ZNRF1 for Ube2N and its functional implications” (Biochemical Journal, 2018).

To fix the notation:
T1: ZNRF1^CTD (C-terminal domain of ZNRF1, residues 139–227) (UniProt Q8ND25 139-227)
T1 construct: ZNRF1, RING E3 ubiquitin ligase, residues 139-227 of the full-length protein (ZnF and RING domains); also called ZNRF1 C-terminal domain; ZRNF1^CTD; source: E. coli Rossetta2 (DE3), purified (HisTrap, SEC)
T1 sequence (looked up): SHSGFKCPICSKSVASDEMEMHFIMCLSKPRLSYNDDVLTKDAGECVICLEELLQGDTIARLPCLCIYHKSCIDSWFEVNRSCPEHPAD

T2: ZNRF1 full-length (UniProt Q8ND25 1-227)
T2 construct: ZNRF1, RING E3 ubiquitin ligase, full-length (ends at residue 227); The C-terminal strep-tag II is called non-cleavable; also called ZNRF1^FL; source: E. coli Rossetta2 (DE3), purified (HisTrap, StrepTrap HP, desalted); not shown: strep-tag II, C-terminal, kept
T2 sequence (looked up): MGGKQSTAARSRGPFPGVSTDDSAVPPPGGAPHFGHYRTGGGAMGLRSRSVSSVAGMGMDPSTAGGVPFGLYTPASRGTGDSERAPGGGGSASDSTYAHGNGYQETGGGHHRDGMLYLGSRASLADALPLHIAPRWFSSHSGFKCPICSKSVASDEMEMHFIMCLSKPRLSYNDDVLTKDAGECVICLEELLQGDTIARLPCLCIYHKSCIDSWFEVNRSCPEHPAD

B1: Ube2N (enzyme, UniProt P61088 1-152, looked up)
chain: MAGLPRRIIKETQRLLAEPVPGIKAEPDESNARYFHVVIAGPQDSPFEGGTFKLELFLPEEYPMAAPKVRFMTKIYHPNVDKLGRICLDILKDKWSPALQIRTVLLSIQALLSAPNPDDPLANDVAEQWKTNEAQAIETARAWTRLYAMNNI
notes: Ube2N, ubiquitin-conjugating enzyme E2 N; also called wtUbe2N; source: E. coli Rossetta2 (DE3), purified (ion exchange, SEC)
B2: Ube2N/Ube2V1 complex (complex)
chain 1: B1 chain
chain 2: not shown
notes: Ube2N, ubiquitin-conjugating enzyme E2 N; Ube2V1, ubiquitin-conjugating enzyme E2 variant 1; also called Ube2N/V1; source: E. coli Rossetta2 (DE3), each purified, mixed in stoichiometric amounts, complex isolated by SEC
B3: Ube2N^R14E (enzyme, UniProt P61088 1-152, looked up)
chain: B1 chain with R14E
notes: Ube2N, ubiquitin-conjugating enzyme E2 N, with R14E; source: E. coli Rossetta2 (DE3), purified (ion exchange, SEC)
B4: Ube2N^R14A (enzyme, UniProt P61088 1-152, looked up)
chain: B1 chain with R14A
notes: Ube2N, ubiquitin-conjugating enzyme E2 N, with R14A; source: E. coli Rossetta2 (DE3), purified (ion exchange, SEC)
B5: Ube2N^S96R (enzyme, UniProt P61088 1-152, looked up)
chain: B1 chain with S96R
notes: Ube2N, ubiquitin-conjugating enzyme E2 N, with S96R; source: E. coli Rossetta2 (DE3), purified (ion exchange, SEC)
B6: ZNRF1^(CTD, E183A) (domain or fragment, UniProt Q8ND25 139-227, looked up)
chain: T1 sequence (looked up) with E45A
notes: ZNRF1, RING E3 ubiquitin ligase, residues 139-227 with E183A; also called ZRNF1^CTD,E183A; E183A mutant; source: E. coli Rossetta2 (DE3), purified
B7: Ube2N^R14D (enzyme, UniProt P61088 1-152, looked up)
chain: B1 chain with R14D
notes: Ube2N, ubiquitin-conjugating enzyme E2 N, with R14D; source: E. coli Rossetta2 (DE3), purified (ion exchange, SEC)
B8: ZNRF1^RING (residues 166–227) (domain or fragment, UniProt Q8ND25 166-227, looked up)
chain: SKPRLSYNDDVLTKDAGECVICLEELLQGDTIARLPCLCIYHKSCIDSWFEVNRSCPEHPAD
notes: ZNRF1, RING E3 ubiquitin ligase, residues 166-227 (RING domain); also called RING domain of ZNRF1; source: E. coli Rossetta2 (DE3), purified (HisTrap, SEC)
B9: Ube2N^A98T (enzyme, UniProt P61088 1-152, looked up)
chain: B1 chain with A98T
notes: Ube2N, ubiquitin-conjugating enzyme E2 N, with A98T; source: E. coli Rossetta2 (DE3), purified (ion exchange, SEC)

Positions count from the first letter of the chain named. Numbers in names are those of the source.

Holding throughout (conditions): both partners purified
Experiment [1] deals with T1, ZNRF1^CTD (C-terminal domain of ZNRF1, …). In words: ITC; ZNRF1^CTD in the cell, Ube2N in the syringe; 25°C; Na-phosphate pH 8.0, 450 mM NaCl; single site model.
Experiment [2] has the same target. In words: ITC; ZNRF1 construct (10–30 µM) in the cell, E2 in the syringe; 25°C; 20 mM sodium phosphate pH 8.0, 150 mM NaCl; single site model.
The target of the next experiment is T2, ZNRF1 full-length. The description is as above.
For experiment [3], the target named is B8. Described as above.
The experiment “ZNRF1^(CTD, E183A)” addresses B6. The description is as above.
In experiment [4] the target is T1, ZNRF1^CTD (C-terminal domain of ZNRF1, …). In words: ITC; ZNRF1^CTD in the cell, Ube2N in the syringe; 25°C; Na-phosphate pH 8.0, 300 mM NaCl; single site model. (ITC needs no label: the signal is the heat of the interaction.)
The target of the experiment “Ube2N” is B1. In words: ITC; ZNRF1 construct (10–30 µM) in the cell, E2 in the syringe; 25°C; 20 mM sodium phosphate pH 8.0, 150 mM NaCl; single site model.

As usually defined, the stoichiometry N is the number of molecules, sites or subunits per partner or assembly. Usually Kd stands for the equilibrium constant for the complex coming apart. With B1, the dH in experiment [1] was -9.26 kcal/mol; in experiment [2] it was -10.5 kcal/mol; with ZNRF1 full-length it was -9.17 kcal/mol; in experiment [3], -10.9 kcal/mol; with ZNRF1^(CTD, E183A) it was -9.42 kcal/mol; in experiment [4] it was -9.63 kcal/mol. In addition, the “stoichiometry N” value in experiment [1] was found to be 0.96; in experiment [2] it was 0.915; with ZNRF1 full-length it was 0.842; in experiment [3] it was 0.913; with ZNRF1^(CTD, E183A), 0.848; in experiment [4], 0.984. Binding with ZNRF1 full-length was characterised by a dissociation constant (Kd) of 49.5 nM.
Take B2: in experiment [2], the dH was -10.2 kcal/mol and the “stoichiometry N” value amounted to 1.04.
The corresponding values for B3 are -8.54 kcal/mol and 0.854.
With B4, in experiment [2], the dH is -8.69 kcal/mol and the “stoichiometry N” value turned out to be 0.958.
On to B5, for which, in experiment [2], the dH was -5.64 kcal/mol and the “stoichiometry N” value turned out to be 0.828.
Regarding B6, in the experiment with Ube2N, the Kd was 459 nM.
For B7, in experiment [2], the dH was -8.38 kcal/mol and the “stoichiometry N” value was determined as 0.966.
Molecule B8 came in with a Kd with Ube2N of 49.4 nM.
With B9, in experiment [2], the dH was -9.62 kcal/mol and the “stoichiometry N” value came to 1.05.
